According to the supplement of paper PMC9170038:

Tested on: MS2 coat protein
Assay: apparent KD of MS2 coat protein; higher = weaker reporter binding
Details: Eterna round: R107; input ligand: theophylline 2 mM
Summary of the method: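 Apparent KD was obtained for each design as the median of normalised binding-curve fits over its clusters. RNA switches transcribed on-chip from Illumina sequencing clusters were titrated with SNAP-549-labelled MS2 coat protein (twofold steps, 0.7 or 1.5 nM to 3 µM) in 100 mM Tris-HCl pH 7.5, 80 mM KCl, 4 mM MgCl2, without or with constant ligand.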

Sequence	apparent KD of MS2 coat protein [nM]
GACUGUAAAAUAUGACUCAGGGUGACGUCCCGAGGACCGGUACGGCCGCCACUCGAGCGAAUACAUGAGGAUCACCCAUGUAGUC [theeternabot_exclusion_MS2_Trp_A_15]	81.2
CUAUAUGGAAACAUAUAGACGCAAAAGCGACGAGGACCGGUACGGCCGCCACUCGAAGAGUGGUGGACAUGAGGAUCACCCAUGU [Design 3 MOD]	58.9
CAAUGCAGGUCGGCCGCCACUACACACAUGAGGAUCACCCAUGUAGUUACUGGGUGAAGUGGCAGUAGGACCGGGACCUGCAUAC [Brourdmod03]	772
UGUAUGGACUGAAGGAGCGGGUAAUAAAUCUGAGGAUCACCCAGGUAAUAGGCGAAAGCCACCCAGGUAGGUCGCAGUCCAUACU	19.3
AAUAACAUGAGGAUCACCCAUGUAACCGAAGGAGCGGCAAUAAAGCCAGGUAGGUCGCGGAAUAACAUGAGGAUCACCCAUGUAA [Exclusion Arginine A]	125
AUAACGAGUGGUGGAAUACAUGGGUGAUAACGAGGACCGGUACGGCCGCCACUCGAUAACAUGAGGAUCACCCAUGUAAUAAUAA [|T'-M'-Trp-Ms2|_Design18]	139
UUUCAAGUAUCGGCCGCCACUCUAGUUGGUUGUUCAAUCCGAUUACAUGAGGAUCACCCAUGUCUGAGGACCGGGAUAAAGUAAU [theeternabot_sameState_MS2_Trp_B_25]	31.2
AAAAUCCUACCUGAGGAUCACCCUGGUGAAGGAGCGCCCGAAAGGGCAGGUAGGUCGCACCUGAGGAUCACCCAGGUAACCUAAA [ArgEX 13 #DoubleMS2 #OpenEnded #AlternativeMS2]	44.1
GGCCUGUGGAGCGAUACCAGCUUGAGUGUACUGGCCAGGUACAUGAGGAUCACCCAUGUAAGCCCUUGGCAGCGCUCCAGAGGCC [#1 Exclusion - Theophylline B Attempt #18 (HarryS)]	56.7

Same assay, conditions: Eterna round: R107; input ligand: tryptophan 2.4 mM

Sequence	apparent KD of MS2 coat protein [nM]
CGCUACGUAACUGAUACCAGUGUACUGACAUGAGGAUCACCCAUGUUGGGUUUUGUUGUACACCCUUGGCAGCAGAAUCGUAGCG [AstrosExyTheB#13]	61.3
UGGUUUGUGAUGGAUACCAGCAGAGAAAACGUUUAUCCUAACAUGAGGAUCACCCAUGUAUGCCCUUGGCAGCUGUUGUGGGCUG [8.T]	30.4
AUAAGUAAUGUUUCGUGUUUUAUUACAGAUACCAGACUAUACGUUGUCCCUUGGCAGCUGGAUUACAUGAGGAUCACCCAUGUUG [JR_ExcTheophyA_Sub003]	18.5
GGUCUCUGGAGCGAUACCAGCUUGAUCGUACUGGCCUGGUACAUGAGGAUCACCCAUGUAAGCCCUUGGCAGCGCUCCAGAGACC [#1 Exclusion - Theophylline B Attempt #8 (HarryS)]	11.2
UUUGAUAGGACAGAUACCAGCGUGUUGUUGAACAUGAGGAUCACCCAUGUAGUGAUCAGGCGCCCUUGGCAGCUGGUUUGUUAGG [7.N]	366
ACGCCCAGGUAGGCUUAAUGGGAAAUGGAAGGAGCGCUGAUGCAAGCAGGUAGGUCGCCAACGAACAUGAGGAUCACCCAUGUAA [Same State - Arginine A (Freestyle 2)]	20.7
UACAUGAGGAUCACCCAUGUAUGAAUGGAUACCAGAUAAAAUAAGGUCCCUUGGCAGCUAGUGAAUCGAGGGUGGGUAUCAUGAU [#13 Exclusion-TheophyllineA]	10.2
GGGUUACUCUAUGAUACCAGUUCCAUGCCGAAACCUGUGUACAUGAGGAUCACCCAUGUGAACCCUUGGCAGCAUUAAUCAACUG [theeternabot_exclusion_MS2_Theo_B_35]	69.5
AACACGGUGAUGGUAGCCGGACGCUAGGUACGAGGACCGGUACGGCCGCCACUCGAAGUCCUACGACAUGAGGAUCACCCAUGUA [Same State Trp A GF14]	47.7
GCAUCCUAGUCGGCCGCCACUGGAUGUACCCAGUGCUGGUACAAACAUGAGGAUCACCCAUGUACCAGGACCGGGACUAGGAUGC [(Trp1)-(MT2)''-(T1)'-(MT2)'-(Ms2)-(Trp2)_Design3]	9.93
AAUAGACAUGAGGAUCACCCAUGUAUGGAAGGAGCGGUGAAUAAACCAGGUAGGUCGCCAGUGUGAGGGUCAUCUAUGUAAUAAA [#18 Exclusion - Arginine A]	46.9
GAUGAUAUUGCAGAUACCAGACACAUGAGGAUCACCCAUGUCGCUGAGAUGCUGGAUCGUGUCCCUUGGCAGCUGCGAUAUCAUC [Brazil]	49.6
AUGCACAUCAGAAGGAGCGUCUUGGCCAAUCUAGGCCAACAUGAGGAUCACCCAUGUGCAGGACAGGUAGGUCGCUGAUGUGUAG [Arg B SS t8]	12.4
AUACAUGAGGAUCACCCAUGUUAUAGUGAAGGAGCGACAUUUAUGUCAGGUAGGUCGCACUAAAGUUUAAUAAUUCUUUGAUCUU [JR_SSArginiA_Sub011]	18.6
GGCUGUUGCUCUUUGAAGCGGCAGCGUGAUACCAGAUGUAAGAGCGUCCCUUGGCAGCACGUUUACAUGAGGAUCACCCAUGUCA [Raisquin]	151
AUGUCGUUGAAUAUAGCGGCUUGGAGUGAUACCAGUAUGAUCCAAUACCCUUGGCAGCAUAACAUGAGGAUCACCCAUGUUCCAG [SSTheo A #25]	18.6
ACGCUGAUUGAUUACAAUCAGCGAAAAGAUACCAGCCUGGAUAUCGGCCCUUGGCAGCUUAAACCUGAGGAUCACCCUGGUAAAA [TheoAS 13 #MS2Right #BothOrNeither #AlternativeMS2]	147
GACUGUAAAAUAUGACUCAGGGUGACGUCCCGAGGACCGGUACGGCCGCCACUCGAGCGAAUACAUGAGGAUCACCCAUGUAGUC [theeternabot_exclusion_MS2_Trp_A_15]	54.6
CUAUAUGGAAACAUAUAGACGCAAAAGCGACGAGGACCGGUACGGCCGCCACUCGAAGAGUGGUGGACAUGAGGAUCACCCAUGU [Design 3 MOD]	58.5
CAAUGCAGGUCGGCCGCCACUACACACAUGAGGAUCACCCAUGUAGUUACUGGGUGAAGUGGCAGUAGGACCGGGACCUGCAUAC [Brourdmod03]	807
UGUAUGGACUGAAGGAGCGGGUAAUAAAUCUGAGGAUCACCCAGGUAAUAGGCGAAAGCCACCCAGGUAGGUCGCAGUCCAUACU	19.4
AAUAACAUGAGGAUCACCCAUGUAACCGAAGGAGCGGCAAUAAAGCCAGGUAGGUCGCGGAAUAACAUGAGGAUCACCCAUGUAA [Exclusion Arginine A]	94.7
GCACCAGGUACGGAUACCAGCUGCCACAGUUACAUGAGGAUCACCCAUGUGAUAAAGUGUAGCCCUUGGCAGCUGUACCUGGUGC [SSThB NP+V+V2 #6 +-Same Structure]	125
GAUGAACUAUUUGAUACCAGACUACAUGAGGAUCACCCAUGUGAGUUUAUACUUCAGUCAGUCCCUUGGCAGCAAAUAGUUUAUC [XTheo B #6]	42.1
AAAAUCCUACCUGAGGAUCACCCUGGUGAAGGAGCGCCCGAAAGGGCAGGUAGGUCGCACCUGAGGAUCACCCAGGUAACCUAAA [ArgEX 13 #DoubleMS2 #OpenEnded #AlternativeMS2]	47
GGCCUGUGGAGCGAUACCAGCUUGAGUGUACUGGCCAGGUACAUGAGGAUCACCCAUGUAAGCCCUUGGCAGCGCUCCAGAGGCC [#1 Exclusion - Theophylline B Attempt #18 (HarryS)]	13.2
